Experimental data reported in patent publication US20190185581A1 (University of California, published 2019).

How the values were obtained:
[1] = biological target: T1, catalytic domain of MMP-14 (cdMMP-14) (human, UniProt P50281 114-287, limits assumed, biotinylated (Sulfo-NHS-LC-Biotin) where immobilised via streptavidin); test: cell-based or functional assay
[2] = biological target: T2, catalytic domain of MMP-9 (cdMMP-9) (human, UniProt P14780 107-443, limits assumed); test: ELISA on MMP-2, MMP-9 and MMP-14 catalytic domains
T2 sequence: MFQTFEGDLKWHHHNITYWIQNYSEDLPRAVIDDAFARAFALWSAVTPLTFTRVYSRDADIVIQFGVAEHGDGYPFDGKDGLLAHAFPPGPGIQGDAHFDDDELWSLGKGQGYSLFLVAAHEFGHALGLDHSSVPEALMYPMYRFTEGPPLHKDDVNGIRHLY

[3] = biological target: T1, catalytic domain of MMP-14 (cdMMP-14); test: ELISA, Fab titrated on immobilised MMP-14 catalytic domain, anti-Fab-HRP
Experimental: Bound Fabs were detected using the anti-Fab-HRP conjugate. The half-maximal effective concentration (EC₅₀) was calculated from a four-parametric logistic curve-fitting analysis.

B1: Fab 33D2 (Fab, V domains shown)
VH: EVQLVESGGGLVQPGGSLRLSCAASGFNLYYSSIHWVRQAPGKGLEWVAYISSYSGYTSYADSVKGRFTISADTSKNTAYLQMNSLRAEDTAVYYCARSKYGPASRQLASRTSWSGPRGKYGMDYWGQGTLVTVSS
VL: DIQMTQSPSSLSASVGDRVTITCRASQSVSSAVAWYQQKPGKAPKLLIYSASSLYSGVPSRFSGSRSGTDFTLTISSLQPEDFATYYCQQAYGSYLITFGQGTKVEIKR
notes: not shown: His tag at the C-terminus of the heavy chain
Q: Which results are given for B1?
A: IC50 by FRET Assay [1]: 420 nM; Selectivity over MMP-2/-9 (ratio of Fab concentrations giving the same ELISA signal, MMP-2/-9 against MMP-14) [2]: 9.6 fold; EC50 [3]: 120 nM
